Key:
[1] = biological target: T1, Soluble human α-Klotho ectodomain (αKlotho^ecto) (human, UniProt Q9UEF7 34-981); test: size-exclusion chromatography of the mixture, with Coomassie-stained SDS-PAGE of the eluted peak fractions [left]
T1 construct: also called wild-type αKlotho^ecto; soluble αKlotho
T1 sequence: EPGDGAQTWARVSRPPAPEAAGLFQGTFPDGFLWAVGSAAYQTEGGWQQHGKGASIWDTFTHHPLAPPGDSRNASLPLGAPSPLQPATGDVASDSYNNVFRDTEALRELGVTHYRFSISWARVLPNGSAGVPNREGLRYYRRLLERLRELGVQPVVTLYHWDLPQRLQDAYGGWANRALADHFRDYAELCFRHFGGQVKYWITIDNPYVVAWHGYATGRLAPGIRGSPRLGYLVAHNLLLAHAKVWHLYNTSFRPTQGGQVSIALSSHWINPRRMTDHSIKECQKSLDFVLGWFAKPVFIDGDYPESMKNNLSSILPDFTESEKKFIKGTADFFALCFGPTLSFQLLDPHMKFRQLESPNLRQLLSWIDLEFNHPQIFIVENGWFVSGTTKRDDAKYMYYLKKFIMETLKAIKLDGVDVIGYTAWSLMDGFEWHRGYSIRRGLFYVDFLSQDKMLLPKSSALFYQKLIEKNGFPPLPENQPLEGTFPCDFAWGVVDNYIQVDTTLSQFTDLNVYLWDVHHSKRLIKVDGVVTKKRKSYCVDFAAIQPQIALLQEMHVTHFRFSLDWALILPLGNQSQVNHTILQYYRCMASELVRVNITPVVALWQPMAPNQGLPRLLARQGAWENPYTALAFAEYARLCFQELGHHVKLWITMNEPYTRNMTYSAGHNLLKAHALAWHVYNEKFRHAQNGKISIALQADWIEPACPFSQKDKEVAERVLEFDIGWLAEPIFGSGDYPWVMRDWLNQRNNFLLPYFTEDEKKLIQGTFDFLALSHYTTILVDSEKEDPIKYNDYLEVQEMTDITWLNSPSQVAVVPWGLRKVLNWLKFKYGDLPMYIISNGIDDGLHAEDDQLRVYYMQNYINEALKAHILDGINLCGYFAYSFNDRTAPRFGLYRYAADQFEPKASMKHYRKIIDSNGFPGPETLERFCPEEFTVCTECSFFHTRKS

[2] = biological target: T2, αKlotho^ecto/ΔRBA (soluble αKlotho ectodomain lacking L544 to T565 of the KL2 β1α1 loop) (human, UniProt Q9UEF7 34-981); test: size-exclusion chromatography of FGF23/αKlotho^ecto/ΔRBA mixture
T2 construct: the mature protein is E34 to S959; Expressed and purified like the wild type (pEF1α/myc-His A); also called α-Klotho^ecto/deltaRBA; αKlotho^ecto/ΔRBA mutant
T2 sequence: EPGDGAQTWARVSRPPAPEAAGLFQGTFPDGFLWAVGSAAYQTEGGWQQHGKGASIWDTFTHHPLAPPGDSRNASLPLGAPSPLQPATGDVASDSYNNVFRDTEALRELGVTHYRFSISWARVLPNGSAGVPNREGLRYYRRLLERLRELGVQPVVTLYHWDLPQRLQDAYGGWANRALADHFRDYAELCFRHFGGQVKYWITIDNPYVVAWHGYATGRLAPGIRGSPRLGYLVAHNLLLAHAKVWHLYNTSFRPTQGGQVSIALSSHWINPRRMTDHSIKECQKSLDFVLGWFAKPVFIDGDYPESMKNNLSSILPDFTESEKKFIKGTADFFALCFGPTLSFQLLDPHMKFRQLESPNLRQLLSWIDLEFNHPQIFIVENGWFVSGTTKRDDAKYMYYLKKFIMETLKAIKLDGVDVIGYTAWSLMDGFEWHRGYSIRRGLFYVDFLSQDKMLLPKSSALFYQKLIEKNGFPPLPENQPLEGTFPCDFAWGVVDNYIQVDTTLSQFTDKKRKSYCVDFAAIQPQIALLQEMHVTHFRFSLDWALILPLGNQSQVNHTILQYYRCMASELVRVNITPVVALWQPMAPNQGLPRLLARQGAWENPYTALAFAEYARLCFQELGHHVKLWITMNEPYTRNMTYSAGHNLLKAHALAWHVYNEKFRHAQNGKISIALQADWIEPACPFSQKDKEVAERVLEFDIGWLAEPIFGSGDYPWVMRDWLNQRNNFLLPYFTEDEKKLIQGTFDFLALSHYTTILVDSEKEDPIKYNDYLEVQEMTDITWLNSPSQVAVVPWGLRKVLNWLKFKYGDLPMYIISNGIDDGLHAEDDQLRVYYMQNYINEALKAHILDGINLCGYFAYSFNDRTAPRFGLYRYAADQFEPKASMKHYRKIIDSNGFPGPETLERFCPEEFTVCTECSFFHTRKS

- binding result [1]: binds
- binding result [2]: binds
B1: FGF23^WT (human FGF23 Y25 to S205 with R176Q/R179Q, protease-resistant minimal protein) (ligand)
chain: YPNASPLLGSSWGGLIHLYTATARNSYHLQIHKNGHVDGAPHQTIYSALMIRSEDAGFVVITGVMSRRYLCMDFRGNIFGSHYFDPENCRFQHQTLENGYDVYHSPQYHFLVSLGRAKRAFLPGMNPPPYSQFLSRRNEIPLIHFNTPIPRQHTQSAEDDSERDPLNVLKPRARMTPAPAS
notes: also called wild-type FGF23; minimal FGF23

Reference: US20210054355A1 (NEW YORK UNIVERSITY, published 2021)
